Assay results from PMC3570535.

Tested on: His-DLA2 (RBP63, Cr-E2) (Chlamydomonas reinhardtii)
Assay: filter binding
Settings: 5 mM Mg2+; 6.7 pM RNA; 20 mM HEPES/KOH pH 7.8, 5 mM MgCl2, 60 mM KCl, RT; 5 min (UV cross-linking, 254 nm, 1 J/cm2) or 15 min (filter binding); native fractions dialyzed to 30 mM …

psbA 5' UTR RNA
Kd: 51 nM
